Results on four molecules are retold here after patent US20180369355A1 (TEXAS A AND M UNIVERSITY SYSTEM, published 2018).

Where no end group is shown, it is not given here.

The labels stand for the following.
T1: human fibrinogen (human, UniProt P02671 20-629; P02675 31-491; P02679 27-437)
T1 construct: also called Fg; intact Fg
T1 sequence 1: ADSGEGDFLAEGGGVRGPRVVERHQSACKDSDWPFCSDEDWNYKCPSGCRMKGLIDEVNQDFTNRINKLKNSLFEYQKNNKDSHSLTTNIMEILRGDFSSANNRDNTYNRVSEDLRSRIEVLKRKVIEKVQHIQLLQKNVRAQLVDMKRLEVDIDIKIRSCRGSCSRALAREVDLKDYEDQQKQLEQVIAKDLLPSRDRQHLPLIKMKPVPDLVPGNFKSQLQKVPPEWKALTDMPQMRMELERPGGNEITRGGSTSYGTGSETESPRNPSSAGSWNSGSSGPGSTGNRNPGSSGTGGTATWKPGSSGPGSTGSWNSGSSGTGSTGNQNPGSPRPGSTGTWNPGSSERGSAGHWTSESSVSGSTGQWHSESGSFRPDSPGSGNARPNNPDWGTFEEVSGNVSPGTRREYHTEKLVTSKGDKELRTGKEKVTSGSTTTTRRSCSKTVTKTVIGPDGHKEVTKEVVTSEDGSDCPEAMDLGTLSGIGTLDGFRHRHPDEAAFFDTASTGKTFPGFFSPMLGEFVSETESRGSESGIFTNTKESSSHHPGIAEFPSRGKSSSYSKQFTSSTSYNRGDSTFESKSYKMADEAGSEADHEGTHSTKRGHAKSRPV
T1 sequence 2: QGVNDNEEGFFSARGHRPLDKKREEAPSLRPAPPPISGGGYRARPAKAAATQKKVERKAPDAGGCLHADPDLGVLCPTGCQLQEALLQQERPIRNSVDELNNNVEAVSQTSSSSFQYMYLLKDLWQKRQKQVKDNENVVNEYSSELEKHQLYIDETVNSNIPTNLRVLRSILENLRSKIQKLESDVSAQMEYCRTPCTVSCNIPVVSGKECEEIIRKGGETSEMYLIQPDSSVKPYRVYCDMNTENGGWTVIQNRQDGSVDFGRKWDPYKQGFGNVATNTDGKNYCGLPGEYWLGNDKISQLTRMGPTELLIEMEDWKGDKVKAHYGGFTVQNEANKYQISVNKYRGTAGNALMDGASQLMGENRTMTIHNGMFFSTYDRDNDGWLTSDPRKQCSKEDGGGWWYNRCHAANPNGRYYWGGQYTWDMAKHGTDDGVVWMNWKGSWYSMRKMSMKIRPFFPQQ
T1 sequence 3: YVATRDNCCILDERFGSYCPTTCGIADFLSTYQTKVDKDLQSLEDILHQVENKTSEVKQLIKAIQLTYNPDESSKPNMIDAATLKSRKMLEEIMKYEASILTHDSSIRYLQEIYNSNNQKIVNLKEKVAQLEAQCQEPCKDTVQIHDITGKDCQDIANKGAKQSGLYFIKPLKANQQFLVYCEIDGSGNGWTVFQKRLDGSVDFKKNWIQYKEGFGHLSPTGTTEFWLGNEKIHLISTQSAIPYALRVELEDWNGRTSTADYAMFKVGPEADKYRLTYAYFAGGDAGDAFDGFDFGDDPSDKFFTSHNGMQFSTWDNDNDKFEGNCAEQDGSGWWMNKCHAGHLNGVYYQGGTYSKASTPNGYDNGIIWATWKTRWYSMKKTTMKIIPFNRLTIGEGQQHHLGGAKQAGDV

T2: ClfA370-559 (S. aureus, UniProt Q53653 370-559)
T2 construct: also called recombinant form of N3
T2 sequence: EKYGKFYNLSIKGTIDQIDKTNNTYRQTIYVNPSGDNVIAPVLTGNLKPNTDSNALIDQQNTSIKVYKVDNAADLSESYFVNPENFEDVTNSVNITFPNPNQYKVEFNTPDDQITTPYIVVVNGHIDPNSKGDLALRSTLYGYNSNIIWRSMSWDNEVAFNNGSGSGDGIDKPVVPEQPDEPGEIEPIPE

T3: Fg D-fragment (UniProt P02671 130-216; P02675 164-491; P02679 114-437)
T3 construct: domain: D-fragment; also called D-domain
T3 sequence 1: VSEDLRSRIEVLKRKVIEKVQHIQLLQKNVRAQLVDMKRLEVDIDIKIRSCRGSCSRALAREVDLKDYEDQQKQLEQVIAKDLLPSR
T3 sequence 2: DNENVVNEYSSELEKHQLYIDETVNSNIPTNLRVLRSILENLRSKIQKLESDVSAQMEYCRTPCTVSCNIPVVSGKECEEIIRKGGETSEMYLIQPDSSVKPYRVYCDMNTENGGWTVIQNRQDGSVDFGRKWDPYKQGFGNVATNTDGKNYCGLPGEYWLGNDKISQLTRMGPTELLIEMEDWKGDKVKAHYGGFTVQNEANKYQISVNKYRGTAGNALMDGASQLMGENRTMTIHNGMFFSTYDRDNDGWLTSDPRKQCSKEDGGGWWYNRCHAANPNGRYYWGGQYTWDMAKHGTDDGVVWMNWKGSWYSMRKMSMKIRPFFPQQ
T3 sequence 3: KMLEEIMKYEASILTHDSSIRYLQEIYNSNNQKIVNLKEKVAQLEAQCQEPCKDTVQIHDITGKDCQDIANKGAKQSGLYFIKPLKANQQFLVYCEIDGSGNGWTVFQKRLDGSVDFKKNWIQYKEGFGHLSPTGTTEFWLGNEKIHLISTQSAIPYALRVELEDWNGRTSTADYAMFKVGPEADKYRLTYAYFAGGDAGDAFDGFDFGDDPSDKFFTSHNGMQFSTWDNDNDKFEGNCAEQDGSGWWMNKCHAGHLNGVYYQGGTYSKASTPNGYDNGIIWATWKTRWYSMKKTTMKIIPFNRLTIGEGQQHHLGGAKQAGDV

B1: ClfACC (other)
chain: GTDITNQLTNVTVGIDSGTTVYPHQAGYVKLNYGFSVPNSAVKGDTFKITVPKELNLNGVTSTAKVPPIMAGDQVLANGVIDSDGNVIYTFTDYVNTKCDVKATLTMPAYIDPENVKKTGNVTLATGIGSTTANKTVLVDYEKYGKFYNLSIKGTIDQIDKTNNTYRQTIYVNPSGDNVIAPVLTGNLKPNTDSNALIDQQNTSIKVYKVDNAADLSESYFVNPENFEDVTNSVNITFPNPNQYKVEFNTPDDQITTPYIVVVNGHIDPNSKGDLALRSTLYGYNSNIIWRSMSWDNEVAFNNGSGSGDGIDCPVVP
modifications: engineered disulfide bond between C327 and C541
notes: also called disulfide bond-closed ClfACC; closed form of ClfA N2N3
B2: GST-tagged Fg γ-peptide (other)
chain: {GST}-GEGQQHHLGGAKQAGDV
notes: domain: γ-peptide (carboxy terminal of the γ-chain); 'expressed and purified as described earlier'; also called GST-γ-peptide; GST tagged γ-peptide; not shown: GST tag
B3: ClfA221-559 (other)
chain: VAADAPAAGTDITNQLTNVTVGIDSGTTVYPHQAGYVKLNYGFSVPNSAVKGDTFKITVPKELNLNGVTSTAKVPPIMAGDQVLANGVIDSDGNVIYTFTDYVNTKDDVKATLTMPAYIDPENVKKTGNVTLATGIGSTTANKTVLVDYEKYGKFYNLSIKGTIDQIDKTNNTYRQTIYVNPSGDNVIAPVLTGNLKPNTDSNALIDQQNTSIKVYKVDNAADLSESYFVNPENFEDVTNSVNITFPNPNQYKVEFNTPDDQITTPYIVVVNGHIDPNSKGDLALRSTLYGYNSNIIWRSMSWDNEVAFNNGSGSGDGIDKPVVPEQPDEPGEIEPIPE
notes: Recombinant, expressed in E. coli and purified by nickel chelate chromatography; the tag is not described; also called ClfA N2N3; ClfAN2N3

The target in test [1] is ClfA221-559 (S. aureus strain Newman) (UniProt Q53653). The test is described as follows: SPR competition: Tefibazumab mixed with 1 µM ClfA221-559, blocked ligand immobilized fibrinogen (Fg).
The target is the same in test [2]. Briefly: SPR competition; 2 µM Tefibazumab with 1 µM ClfA221-559 over immobilized Fg (competitor: Fg).
The target is the same in test [3]. The test is described as follows: SPR competition: Tefibazumab (0.1 to 2 µM) mixed with 1 µM ClfA221-559, binding of ClfA221-559 to immobilized Fg D-fragment (Fg-D) is blocked.
For test [4] the target is unchanged. Briefly: SPR competition; 2 µM Tefibazumab with 1 µM ClfA221-559 over immobilized D-fragment (competitor: D-fragment).
For test [5] the target is unchanged. Briefly: SPR competition; Tefibazumab 0.1-2 µM with 1 µM ClfA221-559 over immobilized human Fg (competitor: Fg).
Test [6] has the same target. Briefly: SPR competition; Tefibazumab 0.1-2 µM with 1 µM ClfA221-559 over immobilized Fg D-fragment (competitor: D-fragment).
The target is the same in test [7]. The test is described as follows: SPR competition: Tefibazumab (0.1 to 2 µM) mixed with 1 µM ClfA221-559, binding of ClfA221-559 to immobilized fibrinogen (Fg) is blocked.
For test [8] the target is unchanged. The test is described as follows: SPR competition; 2 µM Tefibazumab with 1 µM ClfA221-559 over captured GST-tagged Fg γ-peptide (competitor: GST-γ-peptide).
The target is the same in test [9]. Briefly: SPR competition: Tefibazumab mixed with 1 µM ClfA221-559, blocked ligand immobilized Fg D-fragment (Fg-D).
Test [10] has as its target T1, human fibrinogen. Briefly: ITC, ClfACC titrated into fibrinogen in the cell; OneSites fit box, unit not given. (In general: In ITC the heat of successive injections is recorded.)
The target in test [11] is T1, human fibrinogen. Briefly: ITC, ClfACC titrated into fibrinogen in the cell; OneSites fit box.
In test [12] the target is T1, human fibrinogen. Briefly: ITC; full-length Fg against the synthetic C-terminal γ-chain peptide.
Test [13] concerns the target T1, human fibrinogen. The test is described as follows: ITC; full-length Fg in the cell, ClfACC titrated in, 30 °C; full-length Fg in the cell, ClfACC titrated in.
In test [14] the target is T2, ClfA370-559. Briefly: SPR (Biacore), drawn table Ligand/analyte: GST-γ-peptide on the surface, ClfA N3 domain (ClfA370-559) as analyte.
Test [15] has as its target B3. The test is described as follows: SPR (Biacore), drawn table Ligand/analyte: GST-γ-peptide on the surface, ClfA221-559 as analyte.
The target in test [16] is T1, human fibrinogen. Briefly: SPR; immobilized Fg against GST-γ-peptide. (In general: Surface plasmon resonance follows binding to a sensor surface in real time, without labels.)
In test [17] the target is T3, Fg D-fragment. The test is described as follows: SPR; immobilized Fg D-fragment against GST-γ-peptide.
For test [18], the target named is T1, human fibrinogen. Briefly: SPR; ClfA221-559 over immobilized intact Fg; immobilized intact Fg.
Test [19] addresses T3, Fg D-fragment. The test is described as follows: SPR; ClfA221-559 over immobilized Fg D-fragment; immobilized Fg D-fragment.

One may read the IC50 as the concentration at which inhibition is half-maximal. Low values mean greater potency, high ones weaker potency. Take Tefibazumab (antibody): the IC50 (read off the curve) in test [1] and in [9] was 0.3 µM each time. Moreover, the percent inhibition is 60% in test [2], 70% in test [4] and 25% in test [8]. The concentration for half-maximal inhibition (IC50) in [3] is 0.0296 µM; in test [5], 0.03 µM; in test [6], 0.03 µM; in test [7], 0.0302 µM.
As usually defined, the Kd is a measure of binding affinity in units of concentration. A low value points to a tighter complex. As to B1, the ΔH in [10] was -13300. For the same molecule, the N in test [11] is 1.57. Moreover, the “fold higher affinity against the γ-chain peptide” value in test [12] worked out at 30 fold. Moreover, the Kd in test [13] came out at 0.3 µM.
In the case of B2, the Kd in test [14] stood at 54 µM; in test [15] it was 4.3 µM.
As to B3, the “fold difference in KD against the γ-peptide” value in test [16] and in test [17] was 4 to 7 fold each time. Moreover, the results for the Kd in test [18] and in test [19] were 0.98 µM and 0.68 µM, respectively.
